{"source": "patent US20140308271A1", "about": "(GLENMARK PHARMACEUTICALS S A, published 2014)", "binders": {"B1": {"name": "5G6 chimeric antibody (murine 5G6 variable domains fused to human IgG1 heavy chain constant domains and a human kappa constant domain) (antibody, V domains shown)", "VH": "QVQLQQPGSVLVRPGASVKVSCKASGYTFTSSWMHWAKQRPGQGLEWIGEIHPNSGGTNYNEKFKGKATLTVDTSSSTAYVDLSSLTSEDSAVYYCARGDYYGYVSWFAYWGQGTLVTVSS", "VL": "DIQMNQSPSSLSASLGDTITITCHASQNINVLLSWYQQKPGNIPKLLIYKASNLHTGVPSRFSGSGSGTGFTFTISSLQPEDIATYYCQQGQSYPYTFGGGTKLEIKR", "notes": "Human IGHG1 / kappa chimera; also called Chimera; parental 5G6"}, "B2": {"name": "VH4/VL1 humanized 5G6 antibody (antibody, human IgG1, kappa, V domains shown)", "VH": "QVQLVQSGAEVKKPGASVKVSCKASGYTFTSSWMHWARQAPGQGLEWIGEIHPNSGGTNYAQKFQGRVTMTVDTSISTAYMELSRLRSDDTAVYYCARGDYYGYVSWFAYWGQGTLVTVSS", "VL": "B1 VL with N5T, L15V, T18R, I19V, H24Q, S34N, N42K, I43A, G70D, G100Q"}, "B3": {"name": "VH2/VL2 humanized 5G6 antibody (antibody, human IgG1, kappa, V domains shown)", "VH": "B2 VH with V68A, M70L, I76S", "VL": "B1 VL with L15V, T18R, I19V, H24Q, N42K, I43A, G70D, G100Q"}, "B4": {"name": "VH3/VL1 humanized 5G6 antibody (antibody, human IgG1, kappa, V domains shown)", "VH": "B2 VH with V68A", "VL": "B1 VL with N5T, L15V, T18R, I19V, H24Q, S34N, N42K, I43A, G70D, G100Q"}}, "key": {"[1]": {"target": "extracellular part of mouse (mus musculus) TL1A protein (mouse)", "assay": "ELISA on coated extracellular part of TL1A (2 µg/mL), dose dilution of chimeric 5G6, HRP anti-human IgG"}, "[2]": {"target": "T1, extracellular part of rat (ratus norvegicus) TL1A protein (rat, UniProt Q8K3Y7 61-252)", "T1 construct": "also called rat TL1A", "T1 sequence": "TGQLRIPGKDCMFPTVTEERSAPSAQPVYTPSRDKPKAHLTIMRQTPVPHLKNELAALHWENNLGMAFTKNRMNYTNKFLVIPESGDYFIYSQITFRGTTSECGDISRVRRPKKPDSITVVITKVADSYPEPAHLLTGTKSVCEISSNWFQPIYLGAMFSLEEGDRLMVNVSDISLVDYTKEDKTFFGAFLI", "assay": "ELISA on coated extracellular part of TL1A (2 µg/mL), dose dilution of chimeric 5G6, HRP anti-human IgG", "experimental": "(§1) The reactivity of the parental 5G6 antibody (produced as a chimeric antibody with Human Fc) on the extracellular part of TL1A from diverse species was tested by ELISA. The extracellular part of TL1A protein corresponding to human (homo sapiens), rat (ratus norvegicus), mouse (mus musculus) and cynomologus monkey (macaca fascicularis) sequences (SEQ ID NOS: 38, 39, 40 and 41, respectively) was immobilized on high binding 96-well plates (Costar, USA; distributor VWR AG, Nyon, Switzerland) overnight at a concentration of 2 μg/mL at 4° C. in PBS. Plates were blocked with 2% BSA albumin (BSA, Sigma-Aldrich Chemie, Buchs, Switzerland) at RT for one hour. The blocking solution was removed and a dose dilution of 5G6 antibody was applied to the plates. Plates were incubated at RT for 60 minutes, washed six times with PBS 0.01% Tween-20 and the TMB substrate (Bio-rad Laboratories AG, Reinach, Switzerland) was added to the plates. […] The plates were read for absorbance at 450 nm by a microplate reader (Biotek, USA; distributor: WITTEC AG, Littau, Switzerland)."}, "[3]": {"target": "T2, extracellular part of human (homo sapiens) TL1A protein (human, UniProt O95150 57-251)", "T2 construct": "also called human TL1A", "T2 sequence": "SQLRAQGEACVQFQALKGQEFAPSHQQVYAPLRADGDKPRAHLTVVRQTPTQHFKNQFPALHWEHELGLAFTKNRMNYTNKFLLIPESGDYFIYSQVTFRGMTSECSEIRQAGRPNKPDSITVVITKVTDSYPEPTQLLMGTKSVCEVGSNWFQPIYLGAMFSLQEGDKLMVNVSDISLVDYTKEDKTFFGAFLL", "assay": "ELISA on coated extracellular part of TL1A (2 µg/mL), dose dilution of chimeric 5G6, HRP anti-human IgG", "experimental": "as §1"}, "[4]": {"target": "T3, extracellular part of cynomologus monkey (macaca fascicularis) TL1A protein (cynomolgus monkey (macaca fascicularis), UniProt O95150 57-251 (human entry))", "T3 construct": "also called cyno TL1A; cynomologus monkey TL1A", "T3 chain": "T2 sequence with F13L, A15D, F54L, I93V", "assay": "ELISA on coated extracellular part of TL1A (2 µg/mL), dose dilution of chimeric 5G6, HRP anti-human IgG", "experimental": "as §1"}, "[5]": {"target": "T4, recombinant human TL1A-his (processed secreted human TL1A with an N-terminal his-tag) (human, UniProt O95150 72-251)", "T4 construct": "also called recombinant histidine tagged human TL1A; histidine-tagged human TL1A", "T4 sequence": "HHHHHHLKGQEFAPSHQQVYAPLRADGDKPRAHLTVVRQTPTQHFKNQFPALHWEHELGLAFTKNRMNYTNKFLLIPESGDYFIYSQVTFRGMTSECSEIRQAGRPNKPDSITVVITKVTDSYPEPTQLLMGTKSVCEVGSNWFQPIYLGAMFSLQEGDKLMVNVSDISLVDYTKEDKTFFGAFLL", "assay": "SPR (BIAcore 2000), antibody captured on protein-A, his-tagged human TL1A as analyte", "experimental": "Kinetic binding affinity constants (KD) were measured on protein-A captured antibody using recombinant histidine tagged TL1A as analyte. Measurements were conducted on a BIAcore 2000 (GE Healthcare—BIAcore, GE Healthcare Europe GmbH, Glattbrugg, Switzerland) at room temperature, and analyzed with the BiaEvaluation software (BIAcore; v4.1. GE Healthcare Europe GmbH).\nFollowing this capture step, the recombinant histidine tagged human TL1A was injected at different concentrations (1.25 to 125 nM) on the flow-path 1 and 2 (flow-path 1 being used as reference) at a 30 μl/min flow rate. After each binding event, surface was regenerated with glycine buffer pH 1.5 injected for 20 sec (30 μL/min).\nMeasurements (sensorgram: fc2-fc1) were best fitted with a 1:1 analyte model without mass transfer. To account for the experimental variations in protein-A captured antibody at the beginning of each measurement, the Rmax value was set to local in all fits. Dissociation times were of at least 300-600 seconds. Measurements were performed in duplicate and included zero-concentration samples for referencing. The Chi2 value represents the sum of squared differences between the experimental data and reference data at each point; while the plots of residuals indicate the difference between the experimental and reference data for each point in the fit. Both Chi2 and residual values were used to evaluate the quality of a fit between the experimental data and individual binding models."}}, "note": "Where a chain is given by its changes, count along the chain named."}
{"binder": "B1", "values": [{"measurement": "EC50 (read off the curve)", "setting": "[1]", "result": 20, "unit": "ng/mL"}, {"measurement": "EC50 (read off the curve)", "setting": "[2]", "result": "~8", "unit": "ng/mL"}, {"measurement": "EC50 (read off the curve)", "setting": "[3]", "result": "~3", "unit": "ng/mL"}, {"measurement": "EC50 (read off the curve)", "setting": "[4]", "result": "~3", "unit": "ng/mL"}, {"measurement": "Kd", "setting": "[5]", "result": 0.728, "unit": "nM"}]}
{"binder": "B2", "values": [{"measurement": "Kd", "setting": "[5]", "result": 0.681, "unit": "nM"}]}
{"binder": "B3", "values": [{"measurement": "Kd", "setting": "[5]", "result": 0.857, "unit": "nM"}]}
{"binder": "B4", "values": [{"measurement": "Kd", "setting": "[5]", "result": 0.249, "unit": "nM"}]}
